Consider 37 sequences from the supplement of paper PMC10567573.

A short description of this series: protein stability index of a GFP-peptide fusion (GPS, HEK-293T) (PSI 1-6); higher = more stable. As to conditions: c terminus: a fixed tail appended.

± gives the standard deviation.
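Also: 24-mer peptide tiles fused after GFP, lentivirally expressed, FACS-sorted into six equal bins by GFP/DsRed ratio, decoded by Illumina sequencing, PSI is the read-weighted mean bin number.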

As for LRMMVENIMNKEAFMNQEITKAFH [RHOBTB1], the protein stability index amounted to 2.28 ± 0.5 (treatment: DMSO) and 2.2 ± 0.24 (treatment: MLN4924 1 uM, 8 h).
The matching figures for LRNIQGLFAPLKLQMEFKAVQQVQ [POMP]: 2.25 ± 0.44 and 2.28 ± 0.11.
The matching figures for LRRTGCAALRIANCKLFRLQLQQG [GAN]: 2.33 ± 0.47 and 2.13 ± 0.28.
As to LRVLPNLPCVVQEGAIVMARGRHV [PYCR3], the protein stability index was 2.63 ± 0.37 (treatment: DMSO) and 2.73 ± 0.22 (treatment: MLN4924 1 uM, 8 h).
The matching figures for LSDFGLCTGLKKAHRTEFYRNLTH [STK38L]: 2.41 ± 0.6 and 2.2 ± 0.27.
The matching figures for LSESETGPMEEVERQVLPDPEVLE [PBXIP1]: 5.6 ± 0.31 and 5.61 ± 0.16.
The matching figures for LSKSRENPEEDEDQRNPAKESLET [SOAT1]: 5.47 ± 0.27 and 5.66 ± 0.34.
For the sequence LSLSNATVLTRSLFLGRILSLTSS [FANCE], the protein stability index came to 3.06 ± 0.64 (treatment: DMSO) and 2.88 ± 0.34 (treatment: MLN4924 1 uM, 8 h).
The matching figures for LSYRNGYAIVRRPTVGIGGDRLQF [EFHC1]: 2.23 ± 0.24 and 2.35 ± 0.29.
The matching figures for LTAALLTFDTGCLTLSQYILLDPI [POMT2]: 3.36 ± 0.32 and 3.12 ± 0.14.
The matching figures for LTGLQLKLGPALKIYEYHVKPLQT [SAMD13]: 2.26 ± 0.29 and 2.47 ± 0.42.
In the case of LTGQKAVKVHGLLKTFVKQTDHIK [GFOD1], the protein stability index reads like this: (treatment: DMSO) 2.85 ± 0.29; (treatment: MLN4924 1 uM, 8 h) 2.59 ± 0.27.
For the sequence LTHIEAQNKIRACGERLSLGLSRA [PDLIM7], the protein stability index by setting is: (treatment: DMSO) 2.83 ± 0.27; (treatment: MLN4924 1 uM, 8 h) 2.85 ± 0.12.
For the sequence LTLCKSDLESQVESLREELICLKK [KRT34], the protein stability index reads like this: (treatment: DMSO) 2.89 ± 0.87; (treatment: MLN4924 1 uM, 8 h) 2.65 ± 0.27.
As for LTRFLSRVIKCDPDCLRACQEQIE [CCND1], the protein stability index by setting is: (treatment: DMSO) 2.34 ± 0.16; (treatment: MLN4924 1 uM, 8 h) 2.56 ± 0.07.
As for LTTASIIQLGVTPPGYSAWIKEEA [SLC6A17], the protein stability index runs as follows: (treatment: DMSO) 2.6 ± 0.23; (treatment: MLN4924 1 uM, 8 h) 2.82 ± 0.31.
With LWVPQPPPRTIKRTRRRLSRNRDP [PWWP2B], the protein stability index was 3.44 ± 0.35 (treatment: DMSO) and 3.82 ± 0.33 (treatment: MLN4924 1 uM, 8 h).
Consider LYDLRADREVAIYSKESIIFGASS [GNB5], for which the protein stability index (treatment: DMSO) was determined as 2.51 ± 0.27 and the protein stability index (treatment: MLN4924 1 uM, 8 h) was found to be 2.72 ± 0.27.
The matching figures for LYFSIHRYEQGRFWPHLKASNWST [HDAC6]: 2.77 ± 0.66 and 2.73 ± 0.64.
In the case of LYLKQSDLASAAAKQIMEETYKME [INTS4], the protein stability index by setting is: (treatment: DMSO) 3.05 ± 0.17; (treatment: MLN4924 1 uM, 8 h) 3.3 ± 0.23.
The matching figures for LYQRAPRNIHRHVILSEIKEAVAA [TCF25]: 2.75 ± 0.34 and 2.7 ± 0.25.
As to MASRKTKKKEGGALRAQRASSNVF [MYL5], the protein stability index came to 4.13 ± 0.15 (treatment: DMSO) and 4.05 ± 0.25 (treatment: MLN4924 1 uM, 8 h).
Take MATLNRTAAGLMHTFNAHAATDIT [SEPHS2]: the protein stability index (treatment: DMSO) stood at 2.95 ± 0.053 and the protein stability index (treatment: MLN4924 1 uM, 8 h) stood at 3.01 ± 0.19.
The matching figures for MAVPPGHGPFSGFPGPQEHTQVLP [DYRK1B]: 3.75 ± 0.29 and 3.66 ± 0.065.
The matching figures for MCTKMEQPFYHDDSYTATGYGRAP [JUNB]: 3.19 ± 0.19 and 3.25 ± 0.24.
The matching figures for MEACMDGHVEVARLLLDSGAQVNM [ANKRD17]: 2.98 ± 0.32 and 3.06 ± 0.28.
MEEMSGESVVSSAVPAAATRTTSF [KCTD10] came in with a protein stability index (treatment: DMSO) of 4.76 ± 0.28 and a protein stability index (treatment: MLN4924 1 uM, 8 h) of 4.82 ± 0.49.
The matching figures for MEQFCWPHLRSFCETCVGSWSIQM: 2.82 ± 0.44 and 2.49 ± 0.73.
Turning to MFLEISSYYDPGRLICDFPFDGLL [VPS39], the protein stability index (treatment: MLN4924 1 uM, 8 h) worked out at 3.39 ± 1.3.
As to MGKRYFCDYCDRSFQDNLHNRKKH [ZMAT5], the protein stability index (treatment: DMSO) stood at 3.03 ± 0.33 and the protein stability index (treatment: MLN4924 1 uM, 8 h) amounted to 3.42 ± 0.34.
With MGQCRSANAEDAQEFSDVERAIET [S100A14], the protein stability index came to 4.99 ± 0.32 (treatment: DMSO) and 5.15 ± 0.2 (treatment: MLN4924 1 uM, 8 h).
For MGSQHSAAARPSSCRRKQEDDRDG [TMEM106C], the protein stability index turned out to be 5.22 ± 0.15 (treatment: DMSO) and 5.4 ± 0.15 (treatment: MLN4924 1 uM, 8 h).
For MHRLGEPQARMREENMERIGEEVR [BEX1], the protein stability index reads like this: (treatment: DMSO) 5.14 ± 0.13; (treatment: MLN4924 1 uM, 8 h) 5.2 ± 0.21.
In the case of MKFAQVFGCFFYVYYIFERLCAPL [SOAT1], the protein stability index is, setting by setting: (treatment: DMSO) 2.89 ± 0.54; (treatment: MLN4924 1 uM, 8 h) 2.87 ± 0.51.
The matching figures for MKYTSEKFLEICKLSGFMSKLVPA [TPRG1]: 3.05 ± 1 and 2.56 ± 0.45.
Take MMSLTKLADKELVHMISWAKKIPG [ESR2]: the protein stability index was found to be 2.17 ± 0.19 (treatment: DMSO) and 2.16 ± 0.12 (treatment: MLN4924 1 uM, 8 h).
Regarding MNRSIPVEVDESEPYPSQLLKPIP [TRAF3IP2], the protein stability index worked out at 4.44 ± 0.19 (treatment: DMSO) and 4.45 ± 0.34 (treatment: MLN4924 1 uM, 8 h).
